Sequences and labels used below:
B1: glmS ribozyme (parent)
chain: AUAAAAGCGCCAGAACUACAGAAAUGUAGUUGACGAGGAGGAGGUUUAUCGAAUUUUCGGCGGAUGCCUCCAAA

Holding throughout (conditions): with glucosamine-6-phosphate
The variants in series [1] derive from B1. The series is described as follows: kcat; higher = faster cleavage; RNA array. In short, it runs like this:
(§1)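 The measurements used barcoded ribozyme variants on sequenced MiSeq chips, transcribed in situ by E. coli RNA polymerase and tracked at 37 °C with a hybridised Cy3 probe. Glucosamine-6-phosphate, 40 μM to 10 mM in HEPES/KCl/Mg(OAc)2 buffer, was flowed in while tiles were imaged over ~14 h. Baseline-normalised signals, also normalised to non-cleaving reference variants, gave per-tile medians that were fit to one- or two-exponential decays for kobs. kcat and KM resulted from weighted Michaelis–Menten fits across concentrations.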

Series [2] covers variants of B1. Nature of the series: KM; higher = weaker cofactor use; RNA array. In short, it runs like this: as §1
The variants in series [3] derive from B1. The series is described as follows: self-cleavage kobs at 40 uM GlcN6P; higher = faster cleavage; RNA array. In short, it runs like this:
as §1

In series [4] the parent is B1. The series is described as follows: self-cleavage kobs at 640 uM GlcN6P; higher = faster cleavage; RNA array. In short, it runs like this:
as §1

Variants of B1 are the subject of series [5]. Nature of the series: self-cleavage kobs at 2500 uM GlcN6P; higher = faster cleavage; RNA array. In outline: as §1
The variants in series [6] derive from B1. Nature of the series: self-cleavage kobs at 10000 uM GlcN6P; higher = faster cleavage; RNA array. In outline: as §1
Series [7] covers variants of B1. The series is described as follows: self-cleavage kobs at 160 uM GlcN6P; higher = faster cleavage; RNA array. In short, it runs like this:
as §1

These results are taken from the supplement of paper PMC7125110.

± gives the standard error. For some of these results: Fewer inactive variants are shown than the library holds.

For orientation: kcat means the maximal rate divided by the concentration of active sites. In general, KM refers to the substrate concentration at which the rate is half of its maximum. Turning to U47C U54G, the turnover number (kcat) in the series with glucosamine-6-phosphate [1] came out at 0.00375 ± 0.00045 s⁻¹. For the same variant, the KM with glucosamine-6-phosphate [2] was found to be 1.21 ± 0.2 mM. Besides, the “self-cleavage kobs at 40 uM GlcN6P” value with glucosamine-6-phosphate [3] is 0.000121 ± 1.7e-05 s⁻¹. In addition, in the series with glucosamine-6-phosphate [4], the “self-cleavage kobs at 640 uM GlcN6P” value is 0.0013 ± 0.00028 s⁻¹. The “self-cleavage kobs at 2500 uM GlcN6P” value with glucosamine-6-phosphate [5] was found to be 0.00193 ± 0.00076 s⁻¹. In addition, the “self-cleavage kobs at 10000 uM GlcN6P” value with glucosamine-6-phosphate [6] is 0.00359 ± 0.00065 s⁻¹.

G32A U69A: the kcat in the series with glucosamine-6-phosphate [1] was determined as 9.02e-05 ± 2.8e-05 s⁻¹. In addition, in the series with glucosamine-6-phosphate [5], the “self-cleavage kobs at 2500 uM GlcN6P” value came to 9.73e-05 ± 1.8e-05 s⁻¹. Moreover, the “self-cleavage kobs at 10000 uM GlcN6P” value with glucosamine-6-phosphate [6] worked out at 7.45e-05 ± 1.1e-05 s⁻¹.

As for A20G C58U C70G, the kcat in the series with glucosamine-6-phosphate [1] amounted to 7.18e-05 ± 2.9e-05 s⁻¹. Besides, the “self-cleavage kobs at 640 uM GlcN6P” value with glucosamine-6-phosphate [4] stood at 0.000104 ± 2.6e-05 s⁻¹. The “self-cleavage kobs at 2500 uM GlcN6P” value with glucosamine-6-phosphate [5] was determined as 7.21e-05 ± 1.9e-05 s⁻¹.

Turning to U54G C58G, in the series with glucosamine-6-phosphate [1], the turnover number (kcat) turned out to be 0.000237 ± 2.6e-05 s⁻¹. Besides, the KM in the series with glucosamine-6-phosphate [2] came out at 4.28 ± 1 mM. The “self-cleavage kobs at 2500 uM GlcN6P” value in the series with glucosamine-6-phosphate [5] worked out at 9.35e-05 ± 1.7e-05 s⁻¹. In addition, in the series with glucosamine-6-phosphate [6], the “self-cleavage kobs at 10000 uM GlcN6P” value was 0.000164 ± 2e-05 s⁻¹.

Regarding G51U C68U, the turnover number (kcat) with glucosamine-6-phosphate [1] was less than 1e-05 s⁻¹.

In the case of C50A C61G C68G, the kcat with glucosamine-6-phosphate [1] was determined as 3.41e-05 ± 1.4e-05 s⁻¹. The “self-cleavage kobs at 640 uM GlcN6P” value in the series with glucosamine-6-phosphate [4] stood at 6.76e-05 ± 1.9e-05 s⁻¹. Also, the “self-cleavage kobs at 10000 uM GlcN6P” value with glucosamine-6-phosphate [6] is 2.92e-05 ± 1.3e-05 s⁻¹.

For the variant U45G C58A, the kcat in the series with glucosamine-6-phosphate [1] is 0.000297 ± 2.9e-05 s⁻¹. Also, in the series with glucosamine-6-phosphate [2], the KM turned out to be 3.17 ± 0.62 mM. For the same variant, in the series with glucosamine-6-phosphate [4], the “self-cleavage kobs at 640 uM GlcN6P” value is 4.61e-05 ± 9.8e-06 s⁻¹. The “self-cleavage kobs at 2500 uM GlcN6P” value with glucosamine-6-phosphate [5] worked out at 0.000147 ± 2.3e-05 s⁻¹. For the same variant, the “self-cleavage kobs at 10000 uM GlcN6P” value with glucosamine-6-phosphate [6] stood at 0.00022 ± 2.6e-05 s⁻¹.

On to G37U C61A, for which the turnover number (kcat) in the series with glucosamine-6-phosphate [1] was 1.07e-05 ± 1.5e-06 s⁻¹. Also, the “self-cleavage kobs at 10000 uM GlcN6P” value in the series with glucosamine-6-phosphate [6] is less than 1e-05 s⁻¹.

Consider A36G U54G, for which the catalytic constant (kcat) in the series with glucosamine-6-phosphate [1] is less than 1e-05 s⁻¹. Also, the “self-cleavage kobs at 40 uM GlcN6P” value in the series with glucosamine-6-phosphate [3] was less than 1e-05 s⁻¹.

For the variant U55A G59U, the kcat with glucosamine-6-phosphate [1] was 1.92e-05 ± 2.2e-06 s⁻¹. Besides, the “self-cleavage kobs at 2500 uM GlcN6P” value in the series with glucosamine-6-phosphate [5] is less than 1e-05 s⁻¹.

G13U U31A: the turnover number (kcat) with glucosamine-6-phosphate [1] was 0.000483 ± 4.9e-05 s⁻¹. For the same variant, the KM in the series with glucosamine-6-phosphate [2] turned out to be 3.73 ± 0.74 mM. Moreover, in the series with glucosamine-6-phosphate [4], the “self-cleavage kobs at 640 uM GlcN6P” value worked out at 6.93e-05 ± 1.3e-05 s⁻¹. Also, the “self-cleavage kobs at 2500 uM GlcN6P” value with glucosamine-6-phosphate [5] came out at 0.000216 ± 3.6e-05 s⁻¹. For the same variant, the “self-cleavage kobs at 10000 uM GlcN6P” value with glucosamine-6-phosphate [6] is 0.000346 ± 3.6e-05 s⁻¹.

As for A33U U69C, the kcat with glucosamine-6-phosphate [1] stood at 7.22e-05 ± 1.2e-06 s⁻¹. Besides, in the series with glucosamine-6-phosphate [2], the Michaelis-Menten constant (KM) was found to be 1.08 ± 0.092 mM. Moreover, the “self-cleavage kobs at 2500 uM GlcN6P” value in the series with glucosamine-6-phosphate [5] stood at 5.12e-05 ± 1.2e-05 s⁻¹. Further, the “self-cleavage kobs at 10000 uM GlcN6P” value with glucosamine-6-phosphate [6] was determined as 6.49e-05 ± 9.5e-06 s⁻¹.

On to U46A A64C, for which the catalytic constant (kcat) in the series with glucosamine-6-phosphate [1] came out at 4.04e-05 ± 4.1e-06 s⁻¹. Also, the “self-cleavage kobs at 40 uM GlcN6P” value with glucosamine-6-phosphate [3] was less than 1e-05 s⁻¹.

Regarding G38U A39G C50G, the catalytic constant (kcat) with glucosamine-6-phosphate [1] was determined as 3.57e-05 ± 8.1e-06 s⁻¹.

For the variant C16G G32C, in the series with glucosamine-6-phosphate [1], the catalytic constant (kcat) is 0.000124 ± 1.6e-05 s⁻¹. Further, the KM with glucosamine-6-phosphate [2] worked out at 4.55 ± 1.4 mM. Moreover, the “self-cleavage kobs at 2500 uM GlcN6P” value in the series with glucosamine-6-phosphate [5] turned out to be 4.67e-05 ± 9.8e-06 s⁻¹. Moreover, the “self-cleavage kobs at 10000 uM GlcN6P” value with glucosamine-6-phosphate [6] stood at 8.49e-05 ± 1e-05 s⁻¹.

As to A64U U69C, the catalytic constant (kcat) in the series with glucosamine-6-phosphate [1] came to 5.01e-05 ± 2.7e-06 s⁻¹. For the same variant, the KM in the series with glucosamine-6-phosphate [2] stood at 1.05 ± 0.31 mM. Moreover, the “self-cleavage kobs at 10000 uM GlcN6P” value in the series with glucosamine-6-phosphate [6] worked out at 4.48e-05 ± 1.3e-05 s⁻¹.

For C10G G51U C68U C70U, in the series with glucosamine-6-phosphate [1], the kcat was less than 1e-05 s⁻¹.

On to C68G C70U, for which, in the series with glucosamine-6-phosphate [1], the turnover number (kcat) was found to be 2.04e-05 ± 6.3e-06 s⁻¹. Also, the “self-cleavage kobs at 640 uM GlcN6P” value in the series with glucosamine-6-phosphate [4] was found to be 3.32e-05 ± 1.3e-05 s⁻¹.

Regarding A12C U56G, in the series with glucosamine-6-phosphate [1], the kcat worked out at 0.0146 ± 0.003 s⁻¹. For the same variant, the KM in the series with glucosamine-6-phosphate [2] was found to be 3.36 ± 0.91 mM. In addition, the “self-cleavage kobs at 40 uM GlcN6P” value with glucosamine-6-phosphate [3] stood at 0.000162 ± 2.5e-05 s⁻¹. For the same variant, the “self-cleavage kobs at 160 uM GlcN6P” value in the series with glucosamine-6-phosphate [7] worked out at 0.000652 ± 0.00018 s⁻¹. Moreover, the “self-cleavage kobs at 640 uM GlcN6P” value with glucosamine-6-phosphate [4] was determined as 0.00336 ± 0.00068 s⁻¹. The “self-cleavage kobs at 2500 uM GlcN6P” value in the series with glucosamine-6-phosphate [5] amounted to 0.0054 ± 0.0014 s⁻¹. The “self-cleavage kobs at 10000 uM GlcN6P” value with glucosamine-6-phosphate [6] turned out to be 0.0111 ± 0.0018 s⁻¹.

Consider G66U C71A, for which the kcat with glucosamine-6-phosphate [1] was determined as 0.000234 ± 2.4e-05 s⁻¹. The KM in the series with glucosamine-6-phosphate [2] stood at 1.02 ± 0.25 mM. Also, in the series with glucosamine-6-phosphate [7], the “self-cleavage kobs at 160 uM GlcN6P” value came to 3.4e-05 ± 1e-05 s⁻¹. Further, the “self-cleavage kobs at 640 uM GlcN6P” value with glucosamine-6-phosphate [4] came to 8.54e-05 ± 8.7e-06 s⁻¹. For the same variant, the “self-cleavage kobs at 2500 uM GlcN6P” value with glucosamine-6-phosphate [5] is 0.000205 ± 2.4e-05 s⁻¹. In the series with glucosamine-6-phosphate [6], the “self-cleavage kobs at 10000 uM GlcN6P” value is 0.000202 ± 1.9e-05 s⁻¹.

Consider G38C C61A, for which, in the series with glucosamine-6-phosphate [1], the turnover number (kcat) was less than 1e-05 s⁻¹. Also, the “self-cleavage kobs at 160 uM GlcN6P” value with glucosamine-6-phosphate [7] was less than 1e-05 s⁻¹. In addition, the “self-cleavage kobs at 2500 uM GlcN6P” value with glucosamine-6-phosphate [5] was less than 1e-05 s⁻¹.

U47G U49A: the catalytic constant (kcat) in the series with glucosamine-6-phosphate [1] was determined as 1.31e-05 ± 3.3e-06 s⁻¹.

Take C68U C70U: the kcat with glucosamine-6-phosphate [1] stood at 2.24e-05 ± 7.8e-06 s⁻¹. For the same variant, the “self-cleavage kobs at 2500 uM GlcN6P” value in the series with glucosamine-6-phosphate [5] came out at 3.68e-05 ± 7.6e-06 s⁻¹. The “self-cleavage kobs at 10000 uM GlcN6P” value with glucosamine-6-phosphate [6] turned out to be 1.88e-05 ± 3.8e-06 s⁻¹.
